Experimental findings from US6600012 are described below.

In the test the target is HLA.A2 on T2 mutant cells. Nature of the test: T2 cell HLA.A2 upregulation assay, flow cytometry with MA2.1.

For the molecule FLPSDYFPSV (modifications not checked) […, positive control peptide], the % Change in mean channel intensity is 428%.
